Measurements reported in PMC4931249.

Target: WT BG505 SOSIP.664 gp140 trimer (HIV-1 clade-A BG505)
Assay: negative-stain EM

Question: For “WT BG505 SOSIP.664 gp140 trimer (complex)”, which stoichiometry N is on record?
Answer: The stoichiometry N was 3.
